Target: T1, Narp (recombinant, expressed in transfected HEK-293 cells) (Rattus norvegicus (Rat), UniProt P97738 15-432)
T1 sequence: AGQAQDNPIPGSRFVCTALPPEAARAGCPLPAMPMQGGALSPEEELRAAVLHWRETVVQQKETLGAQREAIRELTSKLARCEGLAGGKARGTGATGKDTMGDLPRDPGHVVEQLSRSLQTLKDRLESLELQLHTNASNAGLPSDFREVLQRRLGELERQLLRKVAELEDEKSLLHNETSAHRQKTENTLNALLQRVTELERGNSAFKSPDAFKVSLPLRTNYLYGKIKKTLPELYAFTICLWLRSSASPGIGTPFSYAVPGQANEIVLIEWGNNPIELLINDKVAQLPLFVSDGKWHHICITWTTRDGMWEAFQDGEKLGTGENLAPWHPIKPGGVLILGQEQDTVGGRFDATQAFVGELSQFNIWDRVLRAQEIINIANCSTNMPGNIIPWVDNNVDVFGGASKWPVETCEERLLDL
Assay: cell-based or functional assay

- increase in intercellular myc-Narp*GluR1 co-clusters when untagged Narp is co-expressed with GluR1 in the apposing 293 cell: 2 fold
B1: C-terminal myc-tagged version of Narp (designated myc-Narp) (ligand, not shown: small tags and cut ends)
chain: T1 sequence

Source: patent US7217525 (Johns Hopkins, dated 2007)
